{
  "source": "patent US20130203167",
  "molecular_target": "WDR5-RbBP5-Ash2L subcomplex (UniProt P61964)",
  "data": [
    {"substance": "MLL^3745(R3765A)", "values": [
      {"measurement": "H3K4 dimethylation activity of the MLL1 core complex (MALDI-TOF mass spectrometry)", "result": "a loss of H3K4 dimethylation activity of the MLL1 core complex when Arg-3765 of the MLL1 component is replaced by an alanine"}
    ]}
  ]
}
